Measured values from patent US20130344077A1 (VET THERAPEUTICS, published 2013).
Values belong to the binder of their own block, whether it stands above or below them.

Assays:
[1] = target: target antigen of mab 231 on canine lymphoma cells (canine); experiment: FACS on canine lymphoma cells positive for the mab 231 antigen, FITC anti-dog IgG secondary
[2] = target: target antigen of mab 231 on canine lymphoma cells (canine); experiment: FACS on canine lymphoma cells positive for the mab 231 antigen, anti-mouse IgG secondary

Binding (%) [1]: 27.2%
B1: VET118 VET218 anti-canine lymphoma antibody variant (mab 231 variable domains with canine FR4) (antibody)
light: DIQMNQSPSSLSASLGDTITITCHASQNINVWLSWYQQKPGNIPKLLIYKASNLHTGVPSRFSGSGSGTGFTLTISSLQPEDIATYYCQQGQSYPLTFGGGTHLTVLGQPKASPSVTLFPPSSEELGANKATLVCLISDFYPSGVTVAWKADGSPITQGVETTKPSKQSNNKYAASSYLSLTPDKWKSHSSFSCLVTHEGSTVEKKVAPAECS
heavy: EVKLVESGGGLVQPGGSLKLSCATSGFTFSDYYMYWVRQTPEKRLEWVAYISNGGGSTYYPDTVKGRFTISRDNAKNTLYLQMSRLKSEDTAMYYCARHGGYYAMDYWGQGTSVTVSSASTTAPSVFPLAPSCGSTSGSTVALACLVSGYFPEPVTVSWNSGSLTSGVHTFPSVLQSSGLYSLSSMVTVPSSRWPSETFTCNVAHPASKTKVDKPVPKRENGRVPRPPDCPKCPAPEMLGGPSVFIFPPKPKDTLLIARTPEVTCVVVDLDPEDPEVQISWFVDGKQMQTAKTQPREEQFNGTYRVVSVLPIGHQDWLKGKQFTCKVNNKALPSPIERTISKARGQAHQPSVYVLPPSREELSKNTVSLTCLIKDFFPPDIDVEWQSNGQQEPESKYRTTPPQLDEDGSYFLYSKLSVDKSRWQRGDTFICAVMHEALHNHYTQKSLSHSPGK

Binding (%) [2]: 74.2%
B2: murine anti-canine lymphoma monoclonal antibody mab 231 (ATCC HB-9401) (antibody, V domains shown)
VH: EVKLVESGGGLVQPGGSLKLSCATSGFTFSDYYMYWVRQTPEKRLEWVAYISNGGGSTYYPDTVKGRFTISRDNAKNTLYLQMSRLKSEDTAMYYCARHGGYYAMDYWGQGTSVTVSS
VL: DIQMNQSPSSLSASLGDTITITCHASQNINVWLSWYQQKPGNIPKLLIYKASNLHTGVPSRFSGSGSGTGFTLTISSLQPEDIATYYCQQGQSYPLTFGGGTKLEIK
